Measurements: IntAct's records for PubMed 17643121

B1: BRCA1-A complex subunit Abraxas 1 (Homo sapiens), Q6UWZ7 (parent)
chain: MEGESTSAVLSGFVLGALAFQHLNTDSDTEGFLLGEVKGEAKNSITDSQMDDVEVVYTIDIQKYIPCYQLFSFYNSSGEVNEQALKKILSNVKKNVVGWYKFRRHSDQIMTFRERLLHKNLQEHFSNQDLVFLLLTPSIITESCSTHRLEHSLYKPQKGLFHRVPLVVANLGMSEQLGYKTVSGSCMSTGFSRAVQTHSSKFFEEDGSLKEVHKINEMYASLQEELKSICKKVEDSEQAVDKLVKDVNRLKREIEKRRGAQIQAAREKNIQKDPQENIFLCQALRTFFPNSEFLHSCVMSLKNRHVSKSSCNYNHHLDVVDNLTLMVEHTDIPEASPASTPQIIKHKALDLDDRWQFKRSRLLDTQDKRSKADTGSSNQDKASKMSSPETDEEIEKMKGFGEYSRSPTF

Variants of: B1
Conditions: with brca1_human BRCA1, P38398
Chain of brca1_human BRCA1, P38398 (P38398 whole entry, looked up): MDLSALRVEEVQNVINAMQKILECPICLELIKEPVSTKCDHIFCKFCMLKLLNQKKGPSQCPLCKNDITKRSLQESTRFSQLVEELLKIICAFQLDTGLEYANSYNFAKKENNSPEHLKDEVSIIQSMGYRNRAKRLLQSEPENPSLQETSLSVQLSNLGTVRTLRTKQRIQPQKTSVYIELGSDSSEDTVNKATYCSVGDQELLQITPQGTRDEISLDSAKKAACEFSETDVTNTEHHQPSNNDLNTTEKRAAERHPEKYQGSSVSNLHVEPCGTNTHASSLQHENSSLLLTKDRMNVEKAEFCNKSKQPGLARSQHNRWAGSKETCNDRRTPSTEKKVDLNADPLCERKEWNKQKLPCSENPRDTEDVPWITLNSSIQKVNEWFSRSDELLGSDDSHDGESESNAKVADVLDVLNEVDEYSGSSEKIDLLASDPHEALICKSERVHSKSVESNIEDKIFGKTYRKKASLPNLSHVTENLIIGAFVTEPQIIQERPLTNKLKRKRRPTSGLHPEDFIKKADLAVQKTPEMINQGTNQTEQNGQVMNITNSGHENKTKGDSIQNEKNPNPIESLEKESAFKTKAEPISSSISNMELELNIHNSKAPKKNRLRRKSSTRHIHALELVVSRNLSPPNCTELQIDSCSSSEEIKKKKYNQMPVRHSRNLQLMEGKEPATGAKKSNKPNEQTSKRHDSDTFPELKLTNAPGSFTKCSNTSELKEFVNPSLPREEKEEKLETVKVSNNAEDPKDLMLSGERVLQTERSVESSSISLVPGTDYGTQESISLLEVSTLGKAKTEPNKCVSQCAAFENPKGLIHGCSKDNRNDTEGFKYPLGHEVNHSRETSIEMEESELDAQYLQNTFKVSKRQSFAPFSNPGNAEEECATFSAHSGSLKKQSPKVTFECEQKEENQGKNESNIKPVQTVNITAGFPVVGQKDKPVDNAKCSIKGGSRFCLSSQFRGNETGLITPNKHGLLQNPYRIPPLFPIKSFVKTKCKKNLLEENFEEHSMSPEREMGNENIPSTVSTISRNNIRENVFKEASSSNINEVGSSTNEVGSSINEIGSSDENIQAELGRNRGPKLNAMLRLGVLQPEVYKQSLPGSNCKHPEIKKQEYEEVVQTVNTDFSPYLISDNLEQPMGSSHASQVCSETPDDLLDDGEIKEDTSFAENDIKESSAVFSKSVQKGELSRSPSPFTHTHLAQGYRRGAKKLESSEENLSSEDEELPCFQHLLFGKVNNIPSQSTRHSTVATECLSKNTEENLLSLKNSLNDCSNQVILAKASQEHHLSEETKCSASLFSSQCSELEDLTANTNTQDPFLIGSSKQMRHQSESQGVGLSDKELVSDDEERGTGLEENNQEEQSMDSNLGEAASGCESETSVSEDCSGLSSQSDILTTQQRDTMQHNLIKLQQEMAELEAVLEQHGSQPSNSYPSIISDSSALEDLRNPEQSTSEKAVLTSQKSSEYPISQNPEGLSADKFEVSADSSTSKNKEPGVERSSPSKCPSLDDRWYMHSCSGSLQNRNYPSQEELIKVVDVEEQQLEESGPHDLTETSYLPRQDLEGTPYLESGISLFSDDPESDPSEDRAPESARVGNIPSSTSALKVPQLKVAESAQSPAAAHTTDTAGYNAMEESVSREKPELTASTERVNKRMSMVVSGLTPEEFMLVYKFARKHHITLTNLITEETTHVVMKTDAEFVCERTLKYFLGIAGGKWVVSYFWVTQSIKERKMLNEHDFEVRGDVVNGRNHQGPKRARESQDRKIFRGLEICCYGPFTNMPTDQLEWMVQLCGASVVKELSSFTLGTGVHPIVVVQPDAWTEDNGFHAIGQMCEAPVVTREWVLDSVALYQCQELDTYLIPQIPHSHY

Variant | effect of a mutation on the interaction
S406A | decreasing interaction
